In paper PMC3594281:
Where two headings read alike, the source gives them in different places.

Legend:
[1] = biological target: T1, Hyper-IL-6 (sIL-6R/IL-6 fusion) (UniProt P08887 20-323+P05231:30-212, internal_change); assay: SPR
IL-6 = IL-6 (human, UniProt P05231 30-212); assay: filter binding
thrombin = thrombin (UniProt P00734;P00734 328-363;364-622); assay: filter binding
[2] = biological target: T1, Hyper-IL-6 (sIL-6R/IL-6 fusion); assay: filter binding
[3] = biological target: T1, Hyper-IL-6 (sIL-6R/IL-6 fusion); assay: filter binding; remark: listed apart in the source
[4] = biological target: T1, Hyper-IL-6 (sIL-6R/IL-6 fusion); assay: filter binding; remark: listed apart in the source

Chain of IL-6 (P05231 30-212): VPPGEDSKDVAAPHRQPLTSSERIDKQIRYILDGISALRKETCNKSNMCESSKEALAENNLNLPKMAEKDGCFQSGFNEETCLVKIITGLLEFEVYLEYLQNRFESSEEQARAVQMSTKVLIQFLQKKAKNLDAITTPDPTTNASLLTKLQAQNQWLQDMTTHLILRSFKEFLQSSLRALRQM

Binder	Kd [2] [nM]	binding result [3]	other results
GGGTGGGTGGGTGGGT (structured_DNA) [AID-1 (T30923)]	209 ± 96	–	Kd [1]: 490 nM; binding result (IL-6): no binding; binding result (thrombin): no binding
GGGUGGGUGGGUGGG (structured_RNA) [rAID-1-U]	199 ± 65	–	–
GGGGAGGCUGUGGUGAGGG (structured_RNA) [AIR-3A]	82 ± 9	–	–
GGGTGGGTGGGTGGG (structured_DNA) [AID-1-T]	127 ± 79	–	–
GGGAGGGTGGGTGGGT (structured_DNA) [AID-1-T4A]	420 ± 160	–	–
TGGTGGGTGGGTGGGT (structured_DNA) [AID-1-G1T]	–	no binding	–
GTGTGGGTGGGTGGGT (structured_DNA) [AID-1-G2T]	–	no binding	–
GGTTGGGTGGGTGGGT (structured_DNA) [AID-1-G3T]	–	no binding	–
GGGTGTGTGGGTGGGT (structured_DNA) [AID-1-G6T]	–	no binding	–
GGGTGGGTGTGTGGGT (structured_DNA) [AID-1-G10T]	–	no binding	–
GGGTGGGTGGGTGTGT (structured_DNA) [AID-1-G14T]	–	no binding	–
GGGTGAGTGGGTGGGT (structured_DNA) [AID-1-G6A]	–	no binding	–
GGGTGAGTGGGTGAGT (ssDNA) [AID-1-G6A/G14A]	–	no binding	–
GGGTGGGAGGGTGGGT (structured_DNA) [AID-1-T8A]	316 ± 59	–	–
GTGTGTGTGTGTGTGT (ssDNA) [PolyGT]	–	no binding	–
GTTTGTGTTTGTGTGT (ssDNA) [NK3]	–	–	binding result [2]: no binding
GGTGGTGGTGGT (structured_DNA) [d(GGT)4]	–	no binding	–
GGGGTGGGGTGGGGTGGGGT (structured_DNA) [d(GGGGT)4]	–	no binding	–
GGTTGGTGTGGTTGG (structured_DNA) [TBA]	–	no binding	–
GGGUGUGUGGGUGGGU (structured_RNA) [rAID-1-G6U]	–	–	binding result [2]: no binding
GGGGAGGCUGUGGUGAUGG (structured_RNA) [AIR-3A-G17U]	–	no binding	–
GGGGAGGCUGUGGUGAUUG (structured_RNA) [AIR-3A-G17/18U]	–	–	binding result [2]: no binding
GGGTGGGTGGGAGGGT (structured_DNA) [AID-1-T12A]	234 ± 71	–	–
GTGGTGGGTGGGTGGGT (structured_DNA) [T30175]	293 ± 94	–	binding result (IL-6): no binding
GGGTGGGTGGGTGGGA (structured_DNA) [AID-1-T16A]	693 ± 392	–	–
GGGAGGGAGGGAGGGA (structured_DNA) [AID-1+A]	–	–	Kd [4]: 691 ± 271 nM
GGGUGGGUGGGUGGGU (structured_RNA) [rAID-1]	208 ± 53	–	–
